This experiment deals with HAB1 (PP2C used in the in vitro phosphatase activity assays) (UniProt Q9CAJ0). Kind of experiment: cell-based or functional assay.

One substance from patent publication US20110271408A1 can be followed below.

HAB1 (PP2C used in the in vitro phosphatase activity assays), sequence (Q9CAJ0 23-511 limits assumed): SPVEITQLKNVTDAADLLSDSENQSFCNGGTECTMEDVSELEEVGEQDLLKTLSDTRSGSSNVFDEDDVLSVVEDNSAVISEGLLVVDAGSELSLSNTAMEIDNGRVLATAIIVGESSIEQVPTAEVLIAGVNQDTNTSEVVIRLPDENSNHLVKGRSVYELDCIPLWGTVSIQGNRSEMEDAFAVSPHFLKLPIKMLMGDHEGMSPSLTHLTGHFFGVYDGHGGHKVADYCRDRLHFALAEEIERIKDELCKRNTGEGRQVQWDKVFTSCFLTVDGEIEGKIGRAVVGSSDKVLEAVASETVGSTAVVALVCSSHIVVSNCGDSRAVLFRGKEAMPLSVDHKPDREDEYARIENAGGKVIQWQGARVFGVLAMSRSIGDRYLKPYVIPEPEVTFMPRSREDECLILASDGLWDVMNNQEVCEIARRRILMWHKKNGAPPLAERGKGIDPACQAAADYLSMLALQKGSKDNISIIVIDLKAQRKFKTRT

The substance “PYR1 K59R, Y120H, M158I triple mutant (recombinant protein) (from UniProt O49686 1-191) (receptor)” registered an in vitro receptor assay (PP2C activity, 2:1 receptor to phosphatase); IC50 of fenhexamid of 0.4 µM.
